From article PMC11267267, “Metabolic Recoding of NSUN2‐Mediated m^5C Modification Promotes the Progression of Colorectal Cancer via the NSUN2/YBX1/m^5C‐ENO1 Positive Feedback Loop” (Advanced Science, 2024)

Tested on: YBX1 cold shock domain (MST)
Experiment: MST
Details: not given in the material (MST and pull-down methods text missing)

## unmethylated ENO1 RNA oligo (MST)
  Kd: 10.1 µM
